Substitutions are numbered along the chain they refer to.
B1: XPA.15.247 Fab (Fab, V domains shown)
VH: EVQLVETGGGVVQPGRSLRLSCAASGFTFSSYAMHWVRQAPGKGLEWVAVISYDGSNKYYADSVKGRFTISRDNSKNTLYLQMNSLRAEDTAVYYCARHEWGFGMDVWGQGTTVTVSS
VL: DVVMTQSPLSLSVTLGQPASISCRSSLSLVYGDENTYLNWFQQRPGQSPRRLLYKVSDRDSGVPDRFSGSGSGTDFTLKISRVEADDVGVYYCMQGTHWPYTFGQGTKLEIKR
notes: Monomeric Fab; also called Fab247; XPA.15.247 parent Fab
B2: XPA.15.247.2.011 Fab (Fab, V domains shown)
VH: B1 VH with D54S, M105F, V107Y
VL: B1 VL with S12P, L27H, E34G, Q42H, L53I, D58N, S68A, V88F, Y91F
notes: Fab; also called XPA.15.247.011
B3: XPA.15.247.2.011 IgG (antibody, V domains shown)
VH: B1 VH with D54S, M105F, V107Y
VL: B1 VL with S12P, L27H, E34G, Q42H, L53I, D58N, S68A, V88F, Y91F
notes: Tested as IgG; also called XPA.15.247.011
B4: XPA.15.247.2.014 IgG (antibody, V domains shown)
VH: B1 VH with D54S, M105F, V107Y
VL: B1 VL with S12P, L27Q, E34G, L53I, D58K, D86E, H98Y, Y101M, Q105G
notes: Tested as IgG; also called XPA.15.247.014
B5: XPA.15.247.2.014 Fab (Fab, V domains shown)
VH: B1 VH with D54S, M105F, V107Y
VL: B1 VL with S12P, L27Q, E34G, L53I, D58K, D86E, H98Y, Y101M, Q105G
notes: Fab; also called XPA.15.247.014
B6: RHF.15.05896.006 (Fab, V domains shown)
VH: B1 VH with T28K, D54S, S56D, M105F, V107R
VL: DVVMTQSPLSLPVTLGQPASISCRSSQSLVYGDGNTYLNWFQQRPGQSPRRLIYKVSNRDSGVPDRFSGSGSGTEFTLKISRVEAEDVGVYFCMQGTYWPGTFGGGTKLEIKR
notes: Untagged Fab
B7: RHF.15.05896.056 (Fab, V domains shown)
VH: B1 VH with T28K, D54G, M105F, V107E
VL: B6 VL
notes: Untagged Fab
B8: RHF.15.05896.044 (Fab, V domains shown)
VH: B1 VH with T28K, Y53N, D54S, M105F, V107K
VL: B6 VL
notes: Untagged Fab
B9: RHF.15.05896.020 (Fab, V domains shown)
VH: B1 VH with T28K, Y53W, D54S, M105F, V107E
VL: B6 VL
notes: Untagged Fab
B10: RHF.15.05896.068 (Fab, V domains shown)
VH: B1 VH with T28K, D54S, S56G, M105Y, V107Y
VL: B6 VL
notes: Untagged Fab
B11: RHF.15.05896.032 (Fab, V domains shown)
VH: B1 VH with T28K, D54S, S56E, M105F, V107E
VL: B6 VL
notes: Untagged Fab
B12: RHF.15.05896.036 (Fab, V domains shown)
VH: B1 VH with T28K, D54S, S56G, M105F, V107L
VL: B6 VL
notes: Untagged Fab
B13: RHF.15.05896.015 (Fab, V domains shown)
VH: B1 VH with T28K, D54S, S56R, M105Q, V107Y
VL: B6 VL
notes: Untagged Fab

Each binder was assayed against T1, rat insulin receptor (INSR) on CHOK1 cells (rat, UniProt P15127 27-1383) (assay: cell-based or functional assay).

EC50 (nM), pAKT signaling assay | Binder
46.6 nM | B1
7.8 nM | B2
3.1 nM | B3
4.2 nM | B4
~15.6 nM | B5

Each binder was assayed against T2, cynomolgus insulin receptor (INSR) on CHOK1 cells (cyno, UniProt A0A7N9D6H3 48-1390) (assay: cell-based or functional assay).

EC50 (nM), pAKT signaling assay | Binder
82.4 nM | B1
6.2 nM | B2
1.3 nM | B3
1.7 nM | B4
~15.1 nM | B5

What follows are binders tested against T3, minipig insulin receptor (INSR) on CHOK1 cells (minipig, UniProt F1SCL0 28-758; F1SCL0 763-1382) (assay: cell-based or functional assay).

EC50 (nM), pAKT signaling assay | Binder
20.7 nM | B1
4.4 nM | B2
1.7 nM | B3
2.3 nM | B4
8.4 nM | B5

The binders below were run against T4, human insulin receptor (INSR) on CHOK1 cells (human, UniProt P06213 28-1382) (assay: cell-based or functional assay).

EC50 (nM), pAKT signaling assay | Binder
44 nM | B1
5 nM | B2
1.5 nM | B3
2.1 nM | B4
9.6 nM | B5

What follows are binders tested against T5, Recombinant human insulin receptor (B form) ECD (R&D Systems) (human, UniProt P06213 28-956, limits assumed) (assay: SPR (Biacore 2000), INSR-ECD immobilised; relative to 247.2.018 Fab).
T5 construct: extracellular domain; also called INSR-ECD; h-INSR

Fold KD Improvement | Binder
5.2 fold | B6
6.9 fold | B7
7.4 fold | B8
6.4 fold | B9
8.3 fold | B10
8.6 fold | B11
5.4 fold | B12
3.3 fold | B13

These binders were tested against T5, Recombinant human insulin receptor (B …) (assay: SPR (Biacore 2000), INSR-ECD immobilised, purified Fab injected, 1:1 fit).

Kd | Binder
1.9 nM | B6
1.4 nM | B7
1.3 nM | B8
1.5 nM | B9
1.2 nM | B10
1.1 nM | B11
1.8 nM | B12
3 nM | B13

The binders below were run against T6, solubilized human INSR (B isoform) from CHO-hINSR-B cells, without insulin (human, UniProt P06213 28-1382) (assay: SPR (ProteOn XPR36), solubilized INSR-B captured by CT-3 mAb, Fab injected, -insulin).
T6 construct: mature; Detergent-solubilized full-length receptor in cell lysate, captured on the SPR chip by its carboxy-terminal part; also called solubilized INSR

Kd | koff | kon | Binder
56 nM | 0.00211 s⁻¹ | 37400 M⁻¹ s⁻¹ | B1
10 nM | 0.000705 s⁻¹ | 70400 M⁻¹ s⁻¹ | B2
3.7 nM | 0.000705 s⁻¹ | 137000 M⁻¹ s⁻¹ | B5

What follows are binders tested against T5, Recombinant human insulin receptor (B …) (assay: SPR (Biacore 2000), INSR-ECD immobilised, purified Fab injected, 1:1 fit [cont'd]).

koff | kon | Binder
0.00024 s⁻¹ | 130000 M⁻¹ s⁻¹ | B6
0.00017 s⁻¹ | 120000 M⁻¹ s⁻¹ | B7
0.00017 s⁻¹ | 130000 M⁻¹ s⁻¹ | B8
0.00017 s⁻¹ | 110000 M⁻¹ s⁻¹ | B9
0.00038 s⁻¹ | 320000 M⁻¹ s⁻¹ | B10
0.0001 s⁻¹ | 91000 M⁻¹ s⁻¹ | B11
0.00022 s⁻¹ | 120000 M⁻¹ s⁻¹ | B12
0.00025 s⁻¹ | 84000 M⁻¹ s⁻¹ | B13

These binders were tested against T1, rat insulin receptor (INSR) on CHOK1 … (assay: flow cytometry on CHOK1 cells expressing the INSR ortholog; IgG, anti-human IgG APC detection).

EC50 | Binder
1.3 nM | B3
0.7 nM | B4

These binders were tested against T2, cynomolgus insulin receptor (INSR) on … in the same assay as above.

EC50 | Binder
3.3 nM | B3
1.1 nM | B4

These binders were tested against T3, minipig insulin receptor (INSR) on … in the same assay as above.

EC50 | Binder
1.5 nM | B3
0.9 nM | B4

These binders were tested against T4, human insulin receptor (INSR) on CHOK1 … in the same assay as above.

EC50 | Binder
1 nM | B3
0.7 nM | B4

The binders below were run against T1, rat insulin receptor (INSR) on CHOK1 … (assay: flow cytometry on CHOK1 cells expressing the INSR ortholog; Fab, anti-human kappa FITC detection).

EC50 | Binder
11.8 nM | B1
1.9 nM | B2
1.7 nM | B5

These binders were tested against T2, cynomolgus insulin receptor (INSR) on … in the same assay as above.

EC50 | Binder
93 nM | B1
17.2 nM | B2
10.2 nM | B5

These binders were tested against T3, minipig insulin receptor (INSR) on … in the same assay as above.

EC50 | Binder
39.8 nM | B1
5.8 nM | B2
2.9 nM | B5

What follows are binders tested against T4, human insulin receptor (INSR) on CHOK1 … in the same assay as above.

EC50 | Binder
34.8 nM | B1
2.7 nM | B2
1.8 nM | B5

The binders below were run against T1, rat insulin receptor (INSR) on CHOK1 … (assay: binding to CHO cells expressing rat INSR; 1st column headed CHO Rat INSR; quantity and unit not printed [cont'd]).

CHO Rat INSR | Binder
0.661 | B9
0.533 | B10

The binders below were run against T2, cynomolgus insulin receptor (INSR) on … (assay: binding to CHO cells expressing cyno INSR; 1st column headed CHO Cyno INSR; quantity and unit not printed [cont'd]).

CHO Cyno INSR | Binder
0.911 | B9
0.854 | B10

What follows are binders tested against T4, human insulin receptor (INSR) on CHOK1 … (assay: binding to CHO cells expressing human INSR; 1st column headed CHO Human INSR; quantity and unit not printed [cont'd]).

CHO Human INSR | Binder
2.95 | B6
2.26 | B7
2.52 | B8
1.96 | B9
1.25 | B10
3.1 | B11
3.04 | B12
4.35 | B13

These binders were tested against T4, human insulin receptor (INSR) on CHOK1 … (assay: binding to CHO cells expressing human INSR; 2nd column headed CHO Human INSR; quantity and unit not printed [cont'd]).

CHO Human INSR | Binder
0.838 | B9
0.762 | B10

These binders were tested against T2, cynomolgus insulin receptor (INSR) on … (assay: binding to CHO cells expressing cyno INSR; 2nd column headed CHO Cyno INSR (same numbers as the 1st); quantity and unit not printed [cont'd]).

CHO Cyno INSR | Binder
0.911 | B9
0.854 | B10

What follows are binders tested against T1, rat insulin receptor (INSR) on CHOK1 … (assay: binding to CHO cells expressing rat INSR; 2nd column headed CHO Rat INSR (the 1st column's numbers with more digits); quantity and unit not printed [cont'd]).

CHO Rat INSR | Binder
0.66 | B9
0.533 | B10

— patent US20180251562A1 (XOMA US, published 2018)
